Publication doi:10.1101/773556
Read-outs that look alike come from different tables or passages of the source.

Tests used:
Experiment in all cases: ITC
[1] = biological target: EftM^HM4 W170F (Pseudomonas aeruginosa strain PAHM4)
[2] = biological target: EftM^HM4 W196F (Pseudomonas aeruginosa strain PAHM4)
[3] = biological target: EF-Tu methyltransferase EftM from P. aeruginosa strain PAHM4 (EftM^HM4), wild-type (Pseudomonas aeruginosa strain PAHM4)
[4] = biological target: EF-Tu methyltransferase EftM from P. aeruginosa strain PAHM4 (EftM^HM4), wild-type (Pseudomonas aeruginosa strain PAHM4); remark: listed apart in the source

Substance: translation elongation factor EF-Tu of P. aeruginosa PAO1 (tufB), wild-type (from UniProt P09591 1-397) (natural protein)
- fold decrease of dH against wild-type EftM^HM4 [1]: > 10 fold
- fold decrease of dH against wild-type EftM^HM4 [2]: > 10 fold
- Kd [3]: 28 µM
- Kd [4]: 27 µM
